Columns and labels:
[1] = system: specific serum IgG antibodies in sera from patients diagnosed with a H. pylori infection; test: Quantitative Western-blot analysis (integrated optical density) of patient sera on H. pylori whole cell lysate antigens; type: binding, human; conditions: for average titer of specific antibodies / reduction of average titer: average of all strains (FIG. 4)
[2] = system: sera from H. pylori infected patients; test: Immunoblot analysis of whole cell lysates with sera from H. pylori infected patients; type: binding, human; conditions: one serum of an infected patient (HS#0 12, table 1)
Description: The protein content of the bacterial lysates was determined by the method according to Lowry (Lowry et al., 1951) with bovine serum albumin as a standard. The lysates were dried in a speedVac concentrator. Afterwards the pellets were suspended in gel sample buffer (4% SDS, 12% glycerin, 4% β-mercaptoethanol, 0.01% Serva Blue G250 in 50 mM Tris/HCl pH 6.8) and boiled for 10 min. H. pylori and C. jejuni lysates were separated on 1.0 or 1.5 mm 7.5-16.5% SDS-tricine gradient gels (Schaegger and v. Jagow, 1987). Therefore a 7.5% and a 16.5% acrylamide solution for the separating gel and a 4% acrylamide solution for the stacking gel were prepared according to the scheme presented in table 3. Using a gradient-mixer the gel was poured slowly, but with continuous flow between the glass plates of the gel-sandwich. The separating gel was overlaid with deonized H2O and allowed to polymerize for 1 hr. Afterwards the water was removed, APS and TEMED was added to the stacking gel solution that was poured on top of the separating gel. A comb with the appropriate number of sample pockets was inserted and removed after polymerisation for 1 hr. The gel-sandwich was placed in an electrophoresis chamber half filled with bottom running buffer (0.2 M Tris-HCI, pH 8.9). […] The protein pattern after electrophoresis was determined by Silver staining (Heukeshoven, 1985) or Coomassie blue staining. […]

[3] = antigens from Hp02 (FIG. 3), sera 3 months post therapy
[4] = antigens from Hp02 (FIG. 3), sera 5 months post therapy
[5] = antigens from Hp02 (FIG. 3), sera before therapy, set as 100%
[6] = antigens from Hp08 (FIG. 2), sera 3 months post therapy
[7] = antigens from Hp08 (FIG. 2), sera 5 months post therapy
[8] = antigens from Hp08 (FIG. 2), sera before therapy, set as 100%
[9] = antigens from Hp504, first experiment (FIG. 1A), sera 3 months post therapy
[10] = antigens from Hp504, first experiment (FIG. 1A), sera 5 months post therapy
[11] = antigens from Hp504, first experiment (FIG. 1A), sera of 9 patients before therapy, set as 100%
[12] = antigens from Hp504, second experiment (FIG. 1B), sera 3 months post therapy
[13] = antigens from Hp504, second experiment (FIG. 1B), sera 5 months post therapy
[14] = antigens from Hp504, second experiment (FIG. 1B), sera before therapy, set as 100%
[15] = 3 months after eradication treatment
[16] = 5 months after end of treatment

Molecule | % IOD [1, 3] | % IOD [1, 4] | % IOD [1, 5] [%] | % IOD [1, 6] | % IOD [1, 7] | % IOD [1, 8] [%] | % IOD [1, 9] | % IOD [1, 10] | % IOD [1, 11] [%] | % IOD [1, 12] | % IOD [1, 13] | % IOD [1, 14] [%] | average titer of specific antibodies [1, 15] [%] | reduction of average titer [1, 15] [%] | average titer of specific antibodies [1, 16] [%] | reduction of average titer [1, 16] [%] | reaction with serum HS#0 12 [2]
RPL7/L12 50S ribosomal protein L7/L12 (protein, 15 kd H. pylori antigen band in whole cell lysate, identified as RPL7/L12) MNISVNPYLMAVVFVVFVLLLWAMNVWVYRPLLAFMDNRQAEIKDSLAKIKTDNAQSVEIGHQIEALLKEAAEKRREIIAEAIQKATESYDAVIKQKENELNQEFEAFAKQLQNEKQALKEQLQAQMPVFEDELNKRVAMGLGS | 36.29 +/− 14.99% | 11.39 +/− 4.27% | 100 | 28.60 +/− 13.85% | 9.96 +/− 4.99% | 100 | 37.86 +/− 8.98% | 15.37 +/− 6.68% | 100 | 46.17 +/− 16.87% | 19.77 +/− 11.11% | 100 | 31.61 | 68.39 | 14.12 | 85.88 | did not react
HpaA-neuraminyl-lactose-hemagglutinin precursor (protein, 32 kd H. pylori antigen band in whole cell lysate, identified as HpaA) MKKGSLAIVLGSLLASGAFYTALADGMPAKQQHNNTGESVELHFHYPIKGKQEPKNSHLVVLIEPKIEINKVIPESYQKEFEKSLFLQLSSFLERKGYSVSQFKDASEIPQDIKEKALLVLRMDGNVAILEDIVEESDALSEEKVIDMSSGYLNLNFVEPKSEDIIHSFGIDVSKIKAVIERVELRRTNSGGFVPKTFVHRIKETDHDQAIRKIMNQAYHKVMVHITKELSKKHMEHYEKVSSEMKKRK | 32.30 +/− 13.97% | 8.70 +/− 3.2% | 100 | 48.11 +/− 8.15% | 21.06 +/− 8.01% | 100 | 41.61 +/− 9.25% | 15.15 +/− 4.20% | 100 | 32.15% | 27.2% | 100 | 38.5 | 61.5 | 18.03 | 81.97 | –
Omp18-peptido-glycan associated lipoprotein precursor (protein, 30 kd H. pylori antigen band in whole cell lysate, identified as Omp18) MKRSSVFSFLVAFLLVAGCSHKMDNKTVAGDVSAKTVQTAPVTTEPAPEKEEPKQEPAPVVEEKPAVESGTIIASIYFDFDKYEIKESDQETLDEIVQKAKENHMQVLLEGNTDEFGSSEYNQALGVKRTLSVKNALVIKGVEKDMIKTISFGETKPKCAQKTRECYKENRRVDVKLMK | 50.71 +/− 11.48% | 21.56 +/− 6.44% | 100 | 62.53 +/− 10.32% | 40.77 +/− 4.45% | 100 | 32.08 +/− 6.48% | 20.71 +/− 12.72% | 100 | 53.58% | 41.28% | 100 | 49.73 | 50.27 | 31.08 | 68.92 | –
HP0596 a hypothetical protein (protein, 23 kd H. pylori antigen band in whole cell lysate, identified as HP0596) MLEKSFLKSKQLFLCGLGVLMLQACTCPNTSQRNSFLQDVPYWMLQNRSEYITQGVDSSHIVDGKKTEEIEKIATKRATIRVAQNIVHKLKEAYLSKTNRIKQKITNEMFIQMTQPIYDSLMNVDRLGIYINPNNEEVFALVRARGFDKDALSEGLHKMSLDNQAVSILVAKVEEIFKDSVNYGDVKVPIAM | 35.86 +/− 11.88% | 13.51 +/− 5.02% | 100 | 23.05 +/− 7.53% | 11.36 +/− 4.45% | 100 | 33.88 +/− 10.59% | 23.81 +/− 7.83% | 100 | 52.37 +/− 12.72% | 34.77 +/− 9.61% | 100 | 36.29 | 63.71 | 28.87 | 79.13 | –
